The values that follow come from patent US9688764B2, “Methods of treating breast cancer by administering anti-human prolactin receptor (PRLR) antibodies” (REGENERON PHARMACEUTICALS, INC., priority 2013, dated 2017).

Data set [1] deals with PC3 cells. The data set can be described thus: Cell viability (cell kill) assay. Format: cell-based. Particulars: Table 11, 3 days. The text has this:
(§1) PRLR-overexpressing cells, including HEK293, PC3, MCF7 and NCI-N87, were generated to assess the ability of anti-PRLR conjugated antibodies to reduce cell viability. For comparative purposes, PC3 and T47D cells with overexpressed ErbB2 were also generated, as well as an MCF7 cell line over-expressing both hPRLR and hErbB2. Briefly, Lipofectamine® 2000-mediated transfection methodology was utilized to generate HEK293 cells expressing human PRLR (HEK293/hPRLR) or human ErbB2 (HEK293/hErbB2). Lipofectamine LTX with Plus Reagent was used to generate PC3 cells expressing human PRLR (PC3/hPRLR) or human ErbB2 (PC3/hErbB2). Lentiviral-mediated transduction was utilized to generate MCF7 cells expressing human PRLR (MCF7/hPRLR), NCI-N87 cells expressing human PRLR (NCI-N87/hPRLR), T47D cells over-expressing human ErbB2 (T47D/hErbB2), and MCF7 cells expressing both human PRLR and human ErbB2 (MCF7/hPRLR/hErbB2). All lines were selected for at least two weeks in complete growth media plus appropriate selection reagents. Stably expressing populations were enriched for PRLR expression via FACS using the anti PRLR antibody Control I.
(§2) Next, the ability of anti-PRLR-DM1 antibody-drug conjugates (i.e., anti-PRLR antibodies conjugated to DM1 via a non-cleavable linker [SMCC]) to reduce cell viability was determined using in vitro cell based assays. Cells were seeded in PDL-coated 96 well plates at 1500 to 10000 cells per well in complete growth media and allowed to grow overnight. For cell viability curves, ADCs or free DM1 (as the methyl disulfide derivative DM1-SMe) were added to the cells at final concentrations ranging from 500 nM to 5 pM and incubated for 3 days. The 293, PC3 and T47D cells were incubated with CCK8 (Dojindo, Rockville, Md.) for the final 1-3 hours and the absorbance at 450 nm (OD450) was determined on a Flexstation3 (Molecular Devices, Sunnyvale, Calif.). MCF7 cells were treated with Hoechst 33342 nuclear stain while being fixed with 4% formaldehyde. Images were acquired on the ImageXpress micro XL (Molecular Devices, Sunnyvale, Calif.) and nuclear counts were determined via Columbus image analysis software (Perkin Elmer, Shelton, Conn.). Background OD450 values (PC3, 293, and T47D) or nuclear counts (MCF7) from digitonin (40 nM) treated cells was subtracted from all wells and viability was expressed as a percentage of the untreated controls. IC50 values were determined from a four-parameter logistic equation over a 10-point response curve (GraphPad Prism).
Finally, the potency of anti-PRLR antibodies conjugated to DM1 via the non-cleavable linker SMCC was compared to the cell killing potency of anti-PRLR antibodies conjugated to MMAE via the cleavable linker: mc-vc-PAB (available from Concortis, San Diego, Calif.). Cells used in this experiment were PC3, PC3/hPRLR, MCF7/ATCC and MCF7/PRLR.

For data set [2], the system named is PC3/hPRLR cells. The data set can be described thus: Cell viability (cell kill) assay. Format: cell-based, human. As to conditions: PC3/PRLR; Table 11; 3 days. The method in brief: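 PC3 and PC3/hPRLR (lipofection-generated, FACS-enriched for PRLR) cells exposed 3 days to anti-PRLR ADCs or free DM1-SMe, 500 nM to 5 pM. Viability by CCK8 OD450, digitonin background subtracted, as % of untreated; IC50 from four-parameter fit of 10-point curves.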

Data set [3] deals with MCF7 (MCF7/ATCC) cells. The data set can be described thus: Cell viability (cell kill) assay, nuclear counts. Format: cell-based. As to conditions: MCF7; Table 12; 3 days. The method in brief: (§3)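 Anti-PRLR ADCs or free DM1-SMe were added at 500 nM to 5 pM final to cells seeded overnight and were incubated 3 days. MCF7 lines were fixed with 4% formaldehyde plus Hoechst 33342, and nuclei were counted by imaging, with digitonin […] background subtracted. Viability was expressed as % of untreated cells, and IC50 was obtained from a 4-parameter fit of a 10-point curve.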

In data set [4] the test system is MCF7/hPRLR (MCF7/PRLR) cells. Put plainly: Cell viability (cell kill) assay, nuclear counts. Format: cell-based, human. Particulars: Table 12, 3 days. The method in brief: as §3
Data set [5] deals with T47D cells. The data set can be described thus: Cell viability (cell kill) assay. Format: cell-based. Particulars: T47D, Table 12, 3 days; for IC50: read-out: IC50. Put shortly: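 T47D cells grown overnight, then exposed 3 days to anti-PRLR ADCs (DM1 via non-cleavable SMCC linker, or other maytansinoid toxins) or free DM1-SMe, 500 nM to 5 pM. Viability by CCK8 OD450, digitonin background subtracted, as % of untreated; IC50 from 10-point four-parameter fit. PRL (15 nM) co-incubation tested separately.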

A short description of data set [6]: Conjugate characterization: protein and linker/payload concentrations, payload loading (UV, MALDI-TOF, SEC-HPLC, RP-HPLC). Format: physicochemical. Particulars: Anti-PRLR-SMCC-DM1 conjugates; Table 9. The text has this:
Selected anti-PRLR antibodies were conjugated to the maytansinoid DM1 through an SMCC linker using methods similar to those set forth in U.S. Pat. No. 5,208,020 and US Patent Application Publication No. 2010/0129314, the disclosures of which are incorporated by reference herein in their entireties. The conjugates were purified by size exclusion chromatography and sterile filtered. All starting materials and solvents were purchased commercially and used without purification, unless otherwise noted.
Protein and linker/payload concentrations were determined by UV spectral analysis and MALDI-TOF mass spectrometry. Size-exclusion HPLC established that all conjugates used were >95% monomeric, and RP-HPLC established that there was <0.5% unconjugated linker payload. Yields are reported in Table 8 and 9 based on protein. All conjugated antibodies were analyzed by UV for linker payload loading values according to Hamblett et al, 2004, Clinical Cancer Research 10(20):7063-7070, and by mass difference, native versus conjugated.
On the technique in general: In gel filtration, larger molecules generally elute earlier.

Data set [7] relates to HEK293 (293) cells. Put plainly: Cell viability (cell kill) assay. Particulars: 293; Table 11; 3 days. Format: cell-based. The method in brief: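 Anti-PRLR–DM1 ADCs (non-cleavable SMCC linker) or free DM1-SMe, 500 nM to 5 pM for 3 days on parental or hPRLR-overexpressing lines. HEK293: CCK8 OD450; MCF7: Hoechst nuclear counts by imaging.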
Data set [8] deals with HEK293/hPRLR (293/hPRLR) cells. The data set can be described thus: Cell viability (cell kill) assay. As to conditions: 293/PRLR, Table 11, 3 days; for IC50: read-out: IC50. Format: cell-based, human.
Text: as §1, §2

B1: H1H6803P-DM1 (conjugate)
VH: EVQLVESGGGVVRPGGSLRLSCAASGFKFDDYGMTWVRHVPGKGLEWVSGINWNGGRTGYTDSVKGRFTISRDNAKNSLYLQMNSLRAEDTALYHCAGARRDAFDIWGQGTMVTVSS
VL: DIQMTQSPSSLSASIGDRVTITCRASQNIIKYLNWYQQNAGKAPKLLIYTASSLQSGVPSRFSGSGSGTDFTLTISSLQPEDFATYYCQQSSSSPYTFGQGTKLEIK
As usually defined, the IC50 is the concentration that inhibits the measured activity by half. Regarding B1, the IC50 in data set [1] was 150 nM; in data set [2] it was 2.32 nM; in data set [3] it was 150 nM; in data set [4] it was 0.44 nM; in data set [5], 8.61 nM. The “% Kill” value in data set [2] worked out at 70%; in data set [3] it was 60%; in data set [4] it was 84%; in data set [5], 77%. Further, in data set [6], the “Payload:Antibody Molar Ratio (MS)” value came to 3.1.

B2: H1H6800P-DM1 (conjugate)
VH: EVQLVESGGGLVQPGRSLRLSCAASGFTFDGYAMHWVRQGPGKGLEWVSGISWYSDTLGYADSVKGRFTISRDNAKNSLYLQMNSLRTEDTAFYYCAKISSSGWAFDYWGQGTLVTVSS
VL: EIVLTQSPGTLSLSPGERATLSCRASHSVSSAYLAWYQQKPGQTPRLLIYGTSSRATGIPDRFSGSGSGTDFTLTISRLEPEDFAVYYCQQYGSSPLFTFGPGTKVDIK
B2: the “% Kill” value in data set [7] is listed as 85%; in data set [2], 68%; in data set [3], 65%; in data set [4], 85%; in data set [5], 79%. Also, the IC50 in data set [7] turned out to be 150 nM; in data set [1] it was 150 nM; in data set [2], 1.37 nM; in data set [3] it was 150 nM; in data set [4] it was 0.4 nM; in data set [5] it was 3.2 nM. Besides, the “Payload:Antibody Molar Ratio (MS)” value in data set [6] was 3.2. Also, the “Payload:Antibody Molar Ratio (UV)” value in data set [6] was found to be 3.0.

B3: H1H6959N2-DM1 (conjugate)
VH: EVQLVESGGGLVQPGRSLRLSCAASGFTFDDYAMHWVRQAPGKGLEWVSGISWHSGIIGYADSVKGRFTISRDNAKNSLYLQMNSLRTEDAALYYCAKIGSYFYFDSWGQGTLVTVSS
VL: EIVLTQSPGTLSLSPGERATLSCRASQSVSSNYLAWYQQKPGQAPRLLIYGASSRATGIPDRFSGSGSGTDFTLTISRLEPEDFAVYYCQQFGSSGYTFGQGTNLEIK
As for B3, the “% Kill” value in data set [7] was found to be 100%; in data set [8], 95%; in data set [2], 82%; in data set [3], 82%; in data set [4], 80%; in data set [5], 71%. The IC50 in data set [8] is 4.82 nM; in data set [2] it was 11.6 nM; in data set [3] it was 100 nM; in data set [4], 0.47 nM; in data set [5], 48.9 nM. Further, the “Payload:Antibody Molar Ratio (MS)” value in data set [6] is 3.3. Besides, the “Payload:Antibody Molar Ratio (UV)” value in data set [6] was 3.8.

B4: H1H6960N-DM1 (conjugate)
VH: EVQLVESGGGLVKPGGSLRLSCAASGITFSSYSMNWVRQAPGKGLEWVSSISTRSSLIHYADSVKGRFTISRDNAKNSLYLQMNSLRDEDTAVYYCARWDAAAAFDYWGQGTLVIVSS
VL: DIQLTQSPSFLSASVGDRVTITCWASQGISSYLAWYQQKPGKAPKLLIYVASTLQSGVPSRFSGSGSGTEFTLTISSLQPEDFATYFCQQLNSYPLTFGGGTKVEIK
As to B4, the “% Kill” value in data set [7] was found to be 100%; in data set [8], 95%; in data set [2], 82%; in data set [3], 77%; in data set [4], 78%; in data set [5], 71%. For the same molecule, the IC50 in data set [8] was determined as 0.38 nM; in data set [2], 1.13 nM; in data set [3], 100 nM; in data set [4] it was 0.29 nM; in data set [5] it was 5.1 nM. The “Payload:Antibody Molar Ratio (MS)” value in data set [6] turned out to be 3.0. Besides, the “Payload:Antibody Molar Ratio (UV)” value in data set [6] was 3.6.
